According to publication PMC10240976:
Each block holds one binder with its values, some of them ahead of it.

Experiments:
Assay in all cases: ITC
LIR[Sp] peptide = molecular target: T1, LIR[Sp] peptide; details: chain shown with the change
T1 chain: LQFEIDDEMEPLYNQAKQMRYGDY

[1] = molecular target: GABARAPL2 (purified, for ITC) (human)
[2] = molecular target: GABARAP (purified, for ITC) (human)
LC3B (purified, for ITC) = molecular target: LC3B (purified, for ITC)
[3] = molecular target: GABARAPL1 (purified, for ITC)
LC3C (purified, for ITC) = molecular target: LC3C (purified, for ITC)

Sequence of GABARAPL2 (purified, for ITC) (human) (P60520 1-116): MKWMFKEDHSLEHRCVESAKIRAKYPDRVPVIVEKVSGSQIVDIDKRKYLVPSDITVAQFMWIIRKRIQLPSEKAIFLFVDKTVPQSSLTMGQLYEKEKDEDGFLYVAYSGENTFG

Kd (LIR[Sp] peptide): 0.629 µM
B1: GABARAP (purified, for ITC) F62W (protein)
chain: MKFVYKEEHPFEKRRSEGEKIRKKYPDRVPVIVEKAPKARIGDLDKKKYLVPSDLTVGQFYWLIRKRIHLRAEDALFFFVNNVIPPTSATMGQLYQEHHEEDFFLYIAYSDESVYG

Kd [1]: > 132 µM
Kd [2]: > 132 µM
Kd (LC3B (purified, for ITC)): > 132 µM
Kd [3]: > 132 µM
Kd (LC3C (purified, for ITC)): 26.9 µM
Binder: DGTLIIDLPDSY [LIR(TP[T]) peptide]
